Experimental data reported in US20170305981.

Columns and labels:
[1] = system: apoC-III content of VLDL
[2] = system: T1, AV199-237
T1 sequence: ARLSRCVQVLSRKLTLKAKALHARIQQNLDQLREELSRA

[3] = system: T2, AV199-232
T2 sequence: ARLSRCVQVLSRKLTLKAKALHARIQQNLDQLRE

lipoprotein lipase (LpL), SIGMA
affinity of LpL for substrate on addition of VLDL (10 µg/ml) [1]: The addition of VLDL reduced the enzymes affinity for substrate by 5.3-fold | LpL hydrolytic activity (EnzChek fluorogenic TG substrate), peptide pre-incubated with VLDL [2]: hydrolytic activity was increased ˜4-fold | Km of LpL for substrate, with VLDL, 2.5 µM peptide [3]: substantially improved the Km by almost 8-fold | apparent affinity of LpL for substrate (Michaelis-Menten fit), AV199-232 (2.5 µM) + VLDL (10 µg/ml) [3]: AV199-232+VLDL increases LpL's apparent affinity for substrate by 7.8-fold
